# Test results from patent publication US20190218283A1 (published 2019).
# B1: Ab6 (Ab5 IgG4 containing the corrected germline residues) (antibody, V domains shown)
# VH: QVQLVESGGGVVQPGRSLRLSCAASGFAFSSYGMHWVRQAPGKGLEWVAVISYDGNNKYYADSVKGRFTISRDNSKNTLYLQMNSLRAEDTAVYYCARDLLVRFLEWSHKYGMDVWGQGTTVTVSS
# VL: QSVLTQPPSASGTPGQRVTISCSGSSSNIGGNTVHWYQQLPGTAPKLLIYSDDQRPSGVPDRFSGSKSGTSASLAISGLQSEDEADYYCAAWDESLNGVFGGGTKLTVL
# Biological target: murine pro-myostatin (proGDF8) (mouse, UniProt O08689 25-376)
# Test: cell-based or functional assay
binder,measurement,value
B1,Activity Assay - 293T cells EC50,0.307 nM
